Source: paper PMC9165289, “Theranostic PSMA ligands with optimized backbones for intraoperative multimodal imaging and photodynamic therapy of prostate cancer” (European Journal of Nuclear Medicine and Molecular Imaging, 2022)
Values joined by “and” are separate entries in the source; they are usually repeats but may differ in a detail not shown here. Equal values may be shown once. Read-outs that look alike come from different tables or passages of the source.

Key:
[1] = molecular target: T1, PSMA (Homo sapiens, UniProt Q04609); assay: competitive binding assay using LS174T-PSMA cells
T1 construct: expressed in transfected cells; host or cells: LS174T colon carcinoma cells (LS174T-PSMA)
T1 sequence (Q04609 whole entry): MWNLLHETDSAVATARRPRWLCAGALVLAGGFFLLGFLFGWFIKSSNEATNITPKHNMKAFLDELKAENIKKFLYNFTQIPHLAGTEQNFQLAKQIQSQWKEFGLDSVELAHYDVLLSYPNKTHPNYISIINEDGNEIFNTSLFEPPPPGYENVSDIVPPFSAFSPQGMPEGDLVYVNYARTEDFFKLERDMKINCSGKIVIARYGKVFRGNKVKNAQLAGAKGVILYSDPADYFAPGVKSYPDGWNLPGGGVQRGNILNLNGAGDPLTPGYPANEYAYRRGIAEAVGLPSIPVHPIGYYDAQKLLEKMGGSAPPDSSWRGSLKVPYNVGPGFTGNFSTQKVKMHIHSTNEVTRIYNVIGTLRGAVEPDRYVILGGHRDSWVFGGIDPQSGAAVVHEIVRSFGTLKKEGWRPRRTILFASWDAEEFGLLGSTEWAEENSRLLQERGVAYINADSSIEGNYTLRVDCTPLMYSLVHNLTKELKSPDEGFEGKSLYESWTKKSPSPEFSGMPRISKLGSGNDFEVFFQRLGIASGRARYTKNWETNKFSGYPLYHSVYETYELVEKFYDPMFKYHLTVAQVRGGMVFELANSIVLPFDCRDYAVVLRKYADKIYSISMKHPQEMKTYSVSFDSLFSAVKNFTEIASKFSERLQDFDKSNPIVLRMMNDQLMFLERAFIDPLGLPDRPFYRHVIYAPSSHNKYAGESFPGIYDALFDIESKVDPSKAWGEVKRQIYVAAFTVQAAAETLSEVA
Description: Fig. 3 In vitro characterization of [^111In]In-DOTA(GA)-IRDye700DX-PSMA ligands varying in their backbone composition. a Labeling efficiency of [^111In]In-DOTA-PSMA-N01, -N02, -N03, [^111In]In-DOTAGA-PSMA-N064 and -N064inc at a specific activity of either 10 MBq/µg or 30 MBq/µg (n = 2). IC50 values of ligands as determined in competitive binding assays using LS174T-PSMA cells. b Binding and internalization of [^111In]In-DOTA-PSMA-N01, -N02, -N03, [^111In]In-DOTAGA-PSMA-N064 and -N064inc in LS174T PSMA-positive cells. Membrane binding and internalization are corrected for non-specific binding and accumulation, as determined by co-incubation with an excess of 2-PMPA (50 µg). [^111In]In-DOTA-PSMA-617 was added as a positive control. c PSMA-targeted PDT efficacy of ligands in vitro. Cell viability of LS174T-PSMA (PSMA +) and LS174T wildtype (PSMA-) cells following incubation with 30 nM of PSMA-N01, -N02, -N03, -N064, and -N064inc, after either a 100 J/cm^2 (450 mW/cm^2) radiant exposure or no light exposure (dark).

[2] = tested on: LS174T-PSMA cells; assay: in vitro targeted PDT assay (CellTiter-Glo); assay type: cell-based, human; settings: 30 nM ligand, irradiated with 100 J/cm^2
Method: LS174T wildtype (LS174T-WT) and LS174T-PSMA cells were cultured to confluency in 48-well plates. Cells were incubated (2 h, 5% CO2, 37 °C) with 30-nM PSMA ligand in binding buffer (RPMI 1640 + 0.5% BSA) in triplicate. After washing with PBS, a 0.5-ml binding buffer was added to each well, and cells were irradiated with a NIR light-emitting diode (690 ± 20 nm). The typical forward voltage was 2.6 V creating a power output of 490 mW using 126 individual LED bulbs to ensure homogenous illumination of the area of interest predefined as 5 × 3 cm. The cells were irradiated at NIR radiant exposures of 100 J/cm^2 ([…]) and subsequently incubated for 1 h at 37 °C. Cells that only received the PSMA ligand, only the NIR light, or neither the ligand nor the light were included as controls. Cytotoxic effects of PDT with PSMA ligands were determined with a CellTiter-Glo™ assay (Promega Benelux) according to the manufacturer’s instructions. The binding buffer was replaced with 100-µl fresh binding buffer and 100-µl CellTiter-Glo® 2.0 Assay. Plates were shaken (2 min) and incubated for 10 min at room temperature. Next, luminescence was measured in a plate reader (Tecan Infinite® 200 PRO) to determine the metabolic activity of the cells.

[3] = ex vivo biodistribution of 111In-labeled ligands; set-up: species or system BALB/c nude mice; settings: male, BALB/c nude, mouse, iv, 0.3 nmol, total radioactivity, 2 h p.i.; for tissue uptake at 2 h: 10 MBq/mouse, i.v.
Method: (§1) All animal experiments were approved by the institutional Animal Welfare Committee of the Radboud University Medical Center and were conducted in accordance to the guidelines of the Revised Dutch Act on Animal Experimentation. Animal experiments were performed in 8–10 weeks old male BALB/c nude mice (Janvier). The mice were housed in individually ventilated cages (Blue line IVC, 3–5 mice per cage), under standard non-sterile conditions with cage enrichment present. There was free access to chlorophyll-free animal chow (Sniff Voer) and water. Mice were subcutaneously inoculated with 3.0 × 10^6 LS174T-PSMA cells in the right flank and 1.5 × 10^6 LS174T WT cells in the left flank (diluted in 200-µl RPMI 1640 medium). When xenografts were approximately 0.5 cm^3 (10–14 days after injection), mice were block-randomized into groups based on tumor size. The researchers were not blinded for the experimental groups.
(§2) Mice were intravenously injected with 0.3 nmol PSMA ligand, labeled with 10 MBq ^111In (molar activity 33.3 MBq/nmol) in PBS + 0.5% (w/v) BSA. For the ex vivo biodistribution, five groups (one group for each ligand) of four mice were included. Two hours p.i., all mice were euthanized by CO2/O2-asphyxiation. For two mice of each group (2 mice/ligand), background-subtracted fluorescence images were acquired with the IVIS imaging system (Xenogen VivoVision IVIS Lumina II, PerkinElmer), with a 640-nm excitation filter and a Cy5.5 emission filter and an acquisition time of 10 s. Next, µSPECT/CT imaging was performed in the same two mice per group, with a 1.0-mm diameter pinhole mouse collimator tube (U-SPECT II, MILabs). Mice were scanned for 30 min followed by a CT scan for anatomical reference (spatial resolution 160 μm, 615 μA, 65 kV). MILabs reconstruction software was used to reconstruct the µSPECT/CT scans, via an ordered-subset expectation maximization algorithm, energy windows 154–188 keV and 220–270 keV, 3 iterations, 16 subsets, and voxel size of 0.75 mm. SPECT/CT maximum intensity projections (MIPs) were created using the Inveon Research Workplace software (Siemens Preclinical Solutions, version 4.1). NIR fluorescence images were analyzed using Living Image software (PerkinElmer, version 4.2). After imaging, relevant tissues were dissected, weighed, and measured for radioactivity in a gamma-counter (2480 WIZARD^2 Automatic Gamma Counter, PerkinElmer). In addition, a blocking experiment with PSMA-N064 and PSMA-617 was performed. Full experimental procedures and results can be found in the supplementary data (Page 5, Supplementary Fig. 3).

[4] = tested on: LS174T-PSMA and LS174T wildtype xenografts; assay: ex vivo biodistribution of 111In-labeled ligands; set-up: species or system BALB/c nude mice; settings: 0.3 nmol, 2 h p.i.; for Biodistribution Kidney / Biodistribution Tumor+ LS174T-PSMA: 10 MBq/mouse, i.v., n=4
Method: as §1, §2

[5] = LS174T wildtype tumor, n=4, read-out: Biodistribution Tumor- LS174T
[6] = LS174T-PSMA tumor, n=4, read-out: Biodistribution Tumor+ LS174T-PSMA
[7] = adrenals, n=4, read-out: Biodistribution Adrenals
[8] = blood, n=4, read-out: Biodistribution Blood
[9] = bone marrow, n=4, read-out: Biodistribution Bone marrow
[10] = bone, n=4, read-out: Biodistribution Bone
[11] = duodenum, n=4, read-out: Biodistribution Duodenum
[12] = heart, n=4, read-out: Biodistribution Heart
[13] = kidney, n=4, read-out: Biodistribution Kidney
[14] = liver, n=4, read-out: Biodistribution Liver
[15] = lung, n=4, read-out: Biodistribution Lung
[16] = muscle, n=4, read-out: Biodistribution Muscle
[17] = pancreas, n=4, read-out: Biodistribution Pancreas
[18] = prostate, n=4, read-out: Biodistribution Prostate
[19] = salivary glands, n=4, read-out: Biodistribution Salivary glands
[20] = spleen, n=4, read-out: Biodistribution Spleen
[21] = stomach, n=4, read-out: Biodistribution Stomach
[22] = tumor (LS174T-PSMA xenograft) / blood, read-out: Tumor/Blood ratio
[23] = tumor (LS174T-PSMA xenograft) / kidney, read-out: Tumor/Kidney ratio
[24] = tumor (LS174T-PSMA xenograft) / liver, read-out: Tumor/Liver ratio
[25] = tumor (LS174T-PSMA xenograft) / spleen, read-out: Tumor/Spleen ratio

| Structure (SMILES) | IC50 [1] | cell viability [2] | tissue uptake at 2 h [3, 5] [%ID/g] | tissue uptake at 2 h [3, 6] [%ID/g] | tissue uptake at 2 h [3, 7] [%ID/g] | tissue uptake at 2 h [3, 8] [%ID/g] | tissue uptake at 2 h [3, 9] [%ID/g] | tissue uptake at 2 h [3, 10] [%ID/g] | tissue uptake at 2 h [3, 11] [%ID/g] | tissue uptake at 2 h [3, 12] [%ID/g] | tissue uptake at 2 h [3, 13] [%ID/g] | tissue uptake at 2 h [3, 14] [%ID/g] | tissue uptake at 2 h [3, 15] [%ID/g] | tissue uptake at 2 h [3, 16] [%ID/g] | tissue uptake at 2 h [3, 17] [%ID/g] | tissue uptake at 2 h [3, 18] [%ID/g] | tissue uptake at 2 h [3, 19] [%ID/g] | tissue uptake at 2 h [3, 20] [%ID/g] | tissue uptake at 2 h [3, 21] [%ID/g] | tissue to tissue ratio at 2 h [3, 22] | further results |
| --- | --- | --- | --- | --- | --- | --- | --- | --- | --- | --- | --- | --- | --- | --- | --- | --- | --- | --- | --- | --- | --- |
| C[Si](C)(CCC[N+](CCCS(=O)(=O)[O-])(CCCS(=O)(=O)O)CCCS(=O)(=O)O)O[Si]1(O[Si](C)(C)CCC[N+](CCCS(=O)(=O)[O-])(CCCS(=O)(=O)O)CCCS(=O)(=O)O)n2c3c4ccccc4c2N=C2N=C(N=c4c5c(OCCCOC(=O)NCCCCCC(=O)NCCCC[C@H](NC(=O)CN6CCN(CC(=O)O)CCN(CC(=O)O)CCN(CC(=O)O)CC6)C(=O)NCCCC[C@H](NC(=O)[C@H](CCC(=O)O)NC(=O)c6ccccc6)C(=O)NC[C@H]6CC[C@H](C(=O)N[C@@H](Cc7ccc8ccccc8c7)C(=O)NCCCC[C@H](NC(=O)N[C@@H](CCC(=O)O)C(=O)O)C(=O)O)CC6)cccc5c(n41)=NC1=NC(=N3)c3ccccc31)c1ccccc12 [PSMA-N03] | 41.8 nM | 25% ± 4% | 1.1 ± 0.2 | 20 ± 2 | 2.1 ± 0.8 | 0.7 ± 0.1 | 0.2 ± 0.1 | 0.5 ± 0.1 | 0.4 ± 0.03 | 0.4 ± 0.04 | 142 ± 11 | 1.3 ± 0.1 | 1.8 ± 0.4 | 0.2 ± 0.1 | 0.3 ± 0.02 | 0.6 ± 0.2 | 0.6 ± 0.1 | 1.5 ± 0.4 | 0.6 ± 0.1 | 27 ± 2.9 | IC50 ([1]; listed as -N03): < 50 nM; tissue to tissue ratio at 2 h [3, 23]: 0.2 ± 0.02; tissue to tissue ratio at 2 h [3, 24]: 15.1 ± 1.7; tissue to tissue ratio at 2 h [3, 25]: 14.3 ± 4; Biodistribution Kidney [4]: 142.4 ± 10.6 %ID/g; Biodistribution Tumor+ LS174T-PSMA [4]: 19.8 ± 1.9 %ID/g; Biodistribution Tumor+ LS174T-PSMA ([4]; listed as N03): ≥ 20 %ID/g; Tumor/Negative tumor ratio [4]: 19.9 ± 6.3; Tumor/Prostate ratio [4]: 35.1 ± 10.7; Tumor/Salivary gland ratio [4]: 35.0 ± 5.0 |
| C[Si](C)(CCC[N+](CCCS(=O)(=O)[O-])(CCCS(=O)(=O)O)CCCS(=O)(=O)O)O[Si]1(O[Si](C)(C)CCC[N+](CCCS(=O)(=O)[O-])(CCCS(=O)(=O)O)CCCS(=O)(=O)O)n2c3c4ccccc4c2N=C2N=C(N=c4c5c(OCCCOC(=O)NCCCCCC(=O)NCCCC[C@H](NC(=O)CN6CCN(CC(=O)O)CCN(CC(=O)O)CCN(CC(=O)O)CC6)C(=O)NCCCC[C@H](NC(=O)[C@H](CCC(=O)O)NC(=O)c6ccccc6)C(=O)NCc6ccc(C(=O)N[C@@H](Cc7ccc8ccccc8c7)C(=O)NCCCC[C@H](NC(=O)N[C@@H](CCC(=O)O)C(=O)O)C(=O)O)cc6)cccc5c(n41)=NC1=NC(=N3)c3ccccc31)c1ccccc12 [PSMA-N01] | 44.8 nM and < 50 nM | 23% ± 5% | 1.1 ± 0.2 | 21 ± 3 | 1.8 ± 0.1 | 1.1 ± 0.1 | 0.3 ± 0.2 | 0.7 ± 0.1 | 0.7 ± 0.1 | 0.6 ± 0.1 | 90 ± 7 | 1.5 ± 0.2 | 2.7 ± 0.9 | 0.2 ± 0.03 | 0.4 ± 0.1 | 0.6 ± 0.1 | 0.8 ± 0.1 | 2.2 ± 0.4 | 0.7 ± 0.1 | 20 ± 2.5 | tissue to tissue ratio at 2 h [3, 23]: 0.2 ± 0.04; tissue to tissue ratio at 2 h [3, 24]: 14.6 ± 2.4; tissue to tissue ratio at 2 h [3, 25]: 9.9 ± 1.4; Biodistribution Kidney [4]: 99.2 ± 11.5 %ID/g; Tumor/Negative tumor ratio [4]: 19.7 ± 6.5; Tumor/Prostate ratio [4]: 35.6 ± 4.6; Tumor/Salivary gland ratio [4]: 27.8 ± 4.8 |
